Patent publication US8586548B2, “NAP alpha-aminoisobutyric acid analog with neuroprotective activity” (Ramot at Tel-Aviv University, Ltd., priority 2009, dated 2013)
Entries after “also recorded” stand apart in the source; their conditions may differ. Non-standard residues stand in square brackets, D forms with d. No end group written: not given here. Aib = CC(C)(N)C(=O)O

Assays:
[1] = target: VQIVYK (SEQ ID NO:10) peptide derived from tau (Homo sapiens, UniProt P10636); assay: In vitro tau-like VQIVYK aggregation assay (Thioflavin S); format: biochemical
Procedure: In the presence of polyglutamic acid (or heparin), VQIVYK (SEQ ID NO:10) aggregates which can be further detected by Thioflavin S (excitation 485 nm and emission 535) with emission intensity greatly increasing.
First, different concentrations of polyglutamic acid (0, 100 μM, 250 μM, and 400 μM) VQIVYK (SEQ ID NO:10) and either […] (NH4Ac) 50 mM pH 6.5 or MOPS 20 mM pH 6.5 and Thioflavin S 5 μM were mixed together and incubated at room temperature. The extent of aggregation was read at excitation 485 nm and emission 535 nm using the infinite 200 system with the Magellan program.
The peptides were added at a range of concentrations (10^−17-10^−9 M) and the extent of aggregation of 100 μM VQIVYK (SEQ ID NO:10) was tested in the presence of polyglutamate 250 μM in MOPS 20 μM, pH 6.5 for 7 days.
In order to avoid reading self peptide aggregation as VQIVYK aggregation, for each peptide concentration, the fluorescence of the peptide solution without VQIVYK was subtracted from the fluorescence of each peptide concentration containing VQIVYK.

ADNP^+/− male mice = assay: Morris water maze test; format: in vivo, mouse
Procedure: The heterozygous ADNP mice were generated as before (Pinhasov et al., Brain Res. Dev. Brain Res. 2003, 144:83-90; and Vulih-Shultzman et al., J Pharmacol Exp Ther. 2007, 323(2):438-49). To avoid any variability in results associated with the estrous cycle in females, only ADNP^+/− male mice are use for behavioral experiments.
Iso-NAP (NAXaaVSIXaaQ; SEQ ID NO:1) was dissolved in a vehicle solution, in which each milliliter included 7.5 mg of NaCl, 1.7 mg of citric acid monohydrate, 3 mg of disodium phosphate dihydrate, and 0.2 mg of benzalkonium chloride solution (50%). Iso-NAP or vehicle solution (DD) was administered to mice handheld in a semi-supine position with nostrils facing the investigator. A pipette tip was used to administer 2.5 μl/each nostril. The mouse was handheld until the solution is entirely absorbed. Nasal Iso-NAP application was performed daily, once a day, for 2 weeks for the Morris water maze test. In the 2nd week, Iso-NAP was applied 1 h before the daily test (see below), which was conducted for 5 consecutive days. In the passive avoidance test, all mice were treated for a total of 7 days, on the 7th day of treatment the test began. Iso-NAP was applied 1 h before the test.
The mouse is placed in a pool of water that is colored opaque with powdered non-fat milk, where it must swim to a hidden escape platform. The position of the platform is altered between days but remains constant within each day. Because it is in opaque water, the mouse cannot see the platform, and cannot rely on scent to find the escape route. As the mouse becomes more familiar with the task, it is able to find the platform more quickly.
Pool diameter—140 cm, Platform—clear plaxiglass, 12 cm in diameter, 2 cm below the surface of the water, Water temperature—22-23° C., Room temperature—26-28° C.
Mice are treated with Iso-NAP/vehicle and then habituated for 1 hour in the experimental room. […] The time requires to reach the platform in each trial is measured. […]

[2] = 100 μM VQIVYK, polyglutamate 250 μM, MOPS pH 6.5, 7 days, FIG. 4, p<0.0005 vs. control, listed as IsoNAP

Substance: NAXaaVSIXaaQ (NA[Aib]VSI[Aib]Q) [Alpha-aminoisobutyric NAP, both prolines of NAP substituted]
- inhibition of tau aggregation at 10^−13M [1, 2]: remains effective; also recorded: more effective than NAP
- inhibition of tau aggregation at 10^−17M [1, 2]: more potent; also recorded: more effective than NAP
- prevention of tau aggregation (overall) ([1]; peptides at 10^−17-10^−9 M): effective for preventing tau aggregation
- Morris water maze performance (working memory) vs vehicle controls (ADNP^+/− male mice; 2 μg/5 μl/mouse/day intranasal, third day of testing, P<0.05): performed better than controls
- Morris water maze performance (working memory) vs vehicle controls (ADNP^+/− male mice; 30 μg/5 μl/mouse/day intranasal, day 2 P<0.05, day 3 P<0.07, listed as Iso-NAP): better than control on testing days 2 and 3
- Morris water maze performance (working memory) vs vehicle controls (ADNP^+/− male mice; 30 μg/5 μl/mouse/day intranasal, day 2 P<0.05, day 3 P<0.07, listed as IsoNAP): seems to affect the spatial memory
